Results: EP0951295B1 (THE SCRIPPS RESEARCH INSTITUTE, dated 2010)

Columns and labels:
[1] = target: integrin αvβ3 (vitronectin receptor), purified and immobilized on microtiter wells (UniProt P06756); experiment: solid-phase receptor binding assay, 125I-MMP-2 on immobilized αvβ3
[2] = target: integrin αIIbβ3, purified and immobilized on microtiter wells (UniProt P08514); experiment: solid-phase receptor binding assay, 125I-MMP-2 on immobilized αIIbβ3
[3] = target: integrin αIIbβ3, purified and immobilized on microtiter wells (UniProt P08514); experiment: solid-phase competition: peptide against 1 nM 125I-fibrinogen on immobilized αIIbβ3; mean of duplicates ± SD
[4] = target: integrin αvβ3 (vitronectin receptor), purified and immobilized on microtiter wells (UniProt P06756); experiment: solid-phase competition: peptide against 1 nM 125I-fibrinogen on immobilized αvβ3; mean of duplicates ± SD
[5] = target: T1, integrin αvβ3 (vitronectin receptor), purified and immobilized on microtiter wells (UniProt P06756 31-1048; P05106 27-788); experiment: solid-phase competition: peptide against fibrinogen (FG) on immobilized αvβ3; individual assay
T1 construct: Purified integrin coated at 50 ng per well; also called αvβ3 receptor; vitronectin receptor (αvβ3)

[6] = target: T1, integrin αvβ3 (vitronectin receptor), …; experiment: solid-phase competition: peptide against vitronectin (VN) on immobilized αvβ3; individual assay
[7] = target: T2, integrin αIIbβ3, purified and immobilized on microtiter wells (UniProt P08514 32-1039; P05106 27-788); experiment: solid-phase competition: peptide against fibrinogen (FG) on immobilized αIIbβ3; individual assay
T2 construct: Purified integrin coated at 50 ng per well; also called α11bβ3

[8] = target: T2, integrin αIIbβ3, purified and …; experiment: solid-phase competition: peptide against vitronectin (VN) on immobilized αIIbβ3; individual assay

Molecule	IC50 [3] [nM]	IC50 [4] [nM]	IC50 [5] [nM]	IC50 [6] [nM]	IC50 [8] [nM]	further results
MMP-2 (matrix metalloproteinase-2) as used in the solid-phase receptor binding assays (enzyme)						bound cpm [1]: 300 cpm; bound cpm [2]: 10 CPM
peptide 62187, cyclo(RGDFv)	260	50				
peptide 62181, cyclo(GrGDFV)	15000	1960				
peptide 62186, cyclo(RaDFV)	100000	57400				
peptide 62175, cyclo(ARGDfL)	630	1050				
peptide 62184, cyclo(RGDfV)	525	50				
peptide 62179, cyclo(GRGDfL)	55	395				
peptide 62185, cyclo(RADfV)	100000	885				
YTAECKPQVTRGDVF (Linear synthetic peptide) [peptide 62880, YTAECKPQVTRGDVF (linear, VN-derived amino acid residues 35-49)]			< 100	500	980	IC50 [7]: 4200 nM
TDVNGDGRHDL (Linear synthetic peptide) [peptide 62502, TDVNGDGRHDL (linear, αIIb-derived amino acid residues 296-306)]			> 100000	> 100000	5000	IC50 [7]: 90000 nM
GVVRNNEALARLS (Linear synthetic peptide) [peptide 62503, GVVRNNEALARLS (linear, αv-derived amino acid residues 655-667)]			> 100000	> 100000	> 100000	
TRQVVCDLGNPM (Linear synthetic peptide) [peptide 62411, TRQVVCDLGNPM (linear, αv-derived amino acid residues 676-687)]			> 100000	> 100000	> 100000	
